Here are results for two substances from patent US20250066819.

What all share (assay): cell_activity
Data set [1] has as its system Type I-F3a CAST (TniQ-Cascade + TnsABC) (Vibrio cholerae HE-45).
Data set [2] concerns Type I-F3a CAST with Cas6 R117A Cas6 R117A (Vibrio cholerae HE-45). As to conditions: below detection.
The test system of data set [3] is Type I-F3a CAST with Cas6 R121A Cas6 R121A (Vibrio cholerae HE-45). The settings on record: below detection.
Data set [4] relates to Type I-F3a CAST with Cas6 R125A Cas6 R125A (Vibrio cholerae HE-45). The settings on record: below detection.

On to “lacZ crRNA, canonical type I-E repeat ; lacZ target”, for which, in data set [1] (printed as ~10-3-fold less efficient than native crRNA), the relative transposition efficiency (fold of native) was determined as 0.001.

“lacZ crRNA, native I-F3a CAST repeat ; lacZ target”: the activity in data set [1] (transposition efficiency of viable recipients (+/- 0.2), E. coli, conjugation assay, PAM not stated) was 1.4%; in data set [2] it was under 1e-07 cfu; in data set [3], under 1e-07 cfu; in data set [4] it was under 1e-07 cfu.
